In PMC10562255, “APOBEC3B regulates R-loops and promotes transcription-associated mutagenesis in cancer”:

Target: APOBEC3B (A3B) WT (human, UniProt Q9UH17 1-382)
Assay: EMSA with unlabeled self-competitor; binds ssDNA and ssRNA equally strongly; Competition EMSA: 25 mM HEPES pH 7.4, 50 mM NaCl, 0.4 U/ul RNase inhibitor, room temperature, 5 min binding plus 10 min with competitor; R-loop substrate EMSA:
Settings: protein: recombinant; tags: C-terminal mycHis; label: 5' IRDye800CW

APOBEC3B (A3B) WT, sequence (Q9UH17 whole entry): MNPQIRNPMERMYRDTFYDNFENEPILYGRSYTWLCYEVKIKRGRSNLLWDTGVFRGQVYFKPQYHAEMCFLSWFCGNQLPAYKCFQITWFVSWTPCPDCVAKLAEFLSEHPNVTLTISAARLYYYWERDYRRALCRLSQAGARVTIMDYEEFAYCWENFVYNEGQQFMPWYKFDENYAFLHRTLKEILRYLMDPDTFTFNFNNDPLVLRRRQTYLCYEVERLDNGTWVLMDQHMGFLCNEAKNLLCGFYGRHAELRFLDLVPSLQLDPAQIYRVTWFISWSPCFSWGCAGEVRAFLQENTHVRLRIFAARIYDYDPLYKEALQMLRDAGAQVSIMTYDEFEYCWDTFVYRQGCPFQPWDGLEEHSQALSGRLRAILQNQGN

ATTAGTCATATGGAT (ssDNA) [short 15-mer ssDNA (A3B DNA EMSA)]: binds.

AUUAGUCAUAUGGAU (ssRNA) [short 15-mer ssRNA (A3B RNA EMSA)]: binds.
